# From patent US7888090B2, “Mutants of O6-alkylguanine-DNA alkyltransferase” (Ecole Polytechnique Federale de Lausanne, priority 2004, dated 2011)
# Assays:
# [1] = Activity assay with biotinylated O^6-benzylguanine (BG-Bt), Western blotting; format: biochemical; details: statement in words
# Procedure: Activity towards O^6-benzylguanine substrates is measured as described by Juillerat et al., Chem Biol 10:313-317, 2003.
# Activity assay: Purified mutated GST-AGT is incubated in vitro with a biotinylated O^6-benzylguanine (BG-Bt, substance 3a of Juillerat et al., Chem Biol 10:313-317, 2003). In a total reaction volume of 80 […]I, 0.2 µM GST-AGT are incubated with 1 µM substrate in 50 mM HEPES pH 7.2 and 1 mM DTT at room temperature. At several points of time an aliquot is quenched with 1 mM O^6-benzylguanine (Sigma) in SDS-Laemmli buffer and subjected to Western blotting analysis (neutravidin-peroxidase conjugate (PIERCE), Renaissance reagent plus (NEN)). The intensity of the corresponding bands is quantified by a Kodak Image Station 440.
# [2] = BG-Cy3 activity assay (reaction rate of AGT mutants); format: biochemical; details: divided by value for wild type hAGT
# Procedure: Reactivity against DNA-based substrates measured with a BG-Cy3 assay: BG-Cy3 is prepared by reacting the previously described O^6-(4-aminomethyl-benzyl)guanine (Keppler et al., NatureBiotechnol. 21:86-89, 2003) with the commercially available N-hydroxysuccinimide ester of Cy3, (Cy3-NHS, Amersham). The coupling reaction is performed at ambient temperature in N,N-dimethylformamide in the presence of 1 eq. of triethylamine. The BG-Cy3 conjugate is purified by reversed-phase HPLC on a C18-column by using linear gradients from 0.1% trifluoroacetic acid to acetonitrile. After solvent evaporation BG-Cy3 is dissolved in dimethyl sulfoxide and stored at −20° C. For measuring the reactivity with DNA-based substrates, a reaction mixture containing different concentrations (0 to 5 µM) of oligonucleotide SEQ ID NO:2 (modified in position 14), GST-AGT fusion protein at 0.2 µM and BG-Cy3 at […] in reaction buffer (50 mM HEPES, pH 7.2, 1 mM DTT, 200 mg/ml BSA) is incubated in microtiterplates. Fluorescence of the Cy3 derivative (excitation 519 nm, emission at 572 nm) is measured on a Spectramax Gemini plate reader (Molecular Devices).
# The amplified products are cloned in fusion to the g3 gene of filamentous phage in the vector pAK100 via SfiI restriction sites. The resulting gene libraries are used for phage display as described under Example 4. The mutants of the libraries are selected with 5 to 50 nM of BG-Bt for 10 min. Selected mutants are subcloned into pGEX using the primers SEQ ID NO:3 and SEQ ID NO:13. The reaction rate of mutant AGTs is determined as described in Example 6, Reactivity against DNA-based substrates (BG-Cy3 assay).
# For the activity assay purified GST fusion proteins were used for mutants marked with “p.” (prepared as described under Example 1); periplasmic extracts were used for mutants marked with “x.” (prepared as described under Example 2).
# [3] = purified GST fusion proteins (p.)
molecule,measurement,setting,value
"truncated PGEG-hAGT: PGEG-hAGT (Asn157Gly, Ser159Glu) truncated after codon 182 (protein, UniProt P16455 1-207, looked up, variant N157G S159E del183-207) Methylated-DNA--protein-cystei …: MDKDCEMKRTTLDSPLGKLELSGCEQGLHEIKLLGKGTSAADAVEVPAPAAVLGGPEPLMQCTAWLNAYFHQPEAIEEFPVPALHHPVFQQESFTRQVLWKLLKVVKFGEVISYQQLAALAGNPKAARAVGGAMRGNPVPILIPCHRVVCSSGAVGGYEGGLAVKEWLLAHEGHRLGKPGLG",activity towards O^6-benzylguanine substrates,[1],retains activity
"Lys32lle, Leu33Phe, Asn150Gly, lle151Gly, Asn152Asp, Ala154Asp: AGT mutant having all mutations of AGTM and additionally those listed (protein, UniProt P16455 1-207, looked up, variant K32I L33F C62A Q115S Q116H K125A A127T R128A G131K G132T M134L R135S C150G S151G S152D A154D N157G S159E del183-207) Methylated-DNA--protein-cystei …: MDKDCEMKRTTLDSPLGKLELSGCEQGLHEIIFLGKGTSAADAVEVPAPAAVLGGPEPLMQATAWLNAYFHQPEAIEEFPVPALHHPVFQQESFTRQVLWKLLKVVKFGEVISYSHLAALAGNPAATAAVKTALSGNPVPILIPCHRVVGGDGDVGGYEGGLAVKEWLLAHEGHRLGKPGLG",Relative reaction rate,[2]; [3],45.45
"Asn150Val, lle151Asn, Asn152Asp, Gly153Leu, Ala154Asp: AGT mutant having all mutations of AGTM and additionally those listed (protein, UniProt P16455 1-207, looked up, variant C62A Q115S Q116H K125A A127T R128A G131K G132T M134L R135S C150V S151N S152D G153L A154D N157G S159E del183-207) Methylated-DNA--protein-cystei …: MDKDCEMKRTTLDSPLGKLELSGCEQGLHEIKLLGKGTSAADAVEVPAPAAVLGGPEPLMQATAWLNAYFHQPEAIEEFPVPALHHPVFQQESFTRQVLWKLLKVVKFGEVISYSHLAALAGNPAATAAVKTALSGNPVPILIPCHRVVVNDLDVGGYEGGLAVKEWLLAHEGHRLGKPGLG",Relative reaction rate,[2]; [3],15.67
"Asn150Val, lle151Ser, Asn152Arg, Gly153Asp, Ala154Asp: AGT mutant having all mutations of AGTM and additionally those listed (protein, UniProt P16455 1-207, looked up, variant C62A Q115S Q116H K125A A127T R128A G131K G132T M134L R135S C150V S152R G153D A154D N157G S159E del183-207) Methylated-DNA--protein-cystei …: MDKDCEMKRTTLDSPLGKLELSGCEQGLHEIKLLGKGTSAADAVEVPAPAAVLGGPEPLMQATAWLNAYFHQPEAIEEFPVPALHHPVFQQESFTRQVLWKLLKVVKFGEVISYSHLAALAGNPAATAAVKTALSGNPVPILIPCHRVVVSRDDVGGYEGGLAVKEWLLAHEGHRLGKPGLG",Relative reaction rate,[2]; [3],21.26
"Asn150Glu, lle151Gly, Asn152Arg, Gly153Glu, Ala154Arg: AGT mutant having all mutations of AGTM and additionally those listed (protein, UniProt P16455 1-207, looked up, variant C62A Q115S Q116H K125A A127T R128A G131K G132T M134L R135S C150E S151G S152R G153E A154R N157G S159E del183-207) Methylated-DNA--protein-cystei …: MDKDCEMKRTTLDSPLGKLELSGCEQGLHEIKLLGKGTSAADAVEVPAPAAVLGGPEPLMQATAWLNAYFHQPEAIEEFPVPALHHPVFQQESFTRQVLWKLLKVVKFGEVISYSHLAALAGNPAATAAVKTALSGNPVPILIPCHRVVEGRERVGGYEGGLAVKEWLLAHEGHRLGKPGLG",Relative reaction rate,[2]; [3],11.20
"Lys32lle, Leu33Phe, Gly182Val: AGT mutant having all mutations of AGTM and additionally those listed (protein, UniProt P16455 1-207, looked up, variant K32I L33F C62A Q115S Q116H K125A A127T R128A G131K G132T M134L R135S C150N S151I S152N N157G S159E G182V del183-207) Methylated-DNA--protein-cystei …: MDKDCEMKRTTLDSPLGKLELSGCEQGLHEIIFLGKGTSAADAVEVPAPAAVLGGPEPLMQATAWLNAYFHQPEAIEEFPVPALHHPVFQQESFTRQVLWKLLKVVKFGEVISYSHLAALAGNPAATAAVKTALSGNPVPILIPCHRVVNINGAVGGYEGGLAVKEWLLAHEGHRLGKPGLV",Relative reaction rate,[2]; periplasmic extracts (x.),9.48
"Asn150Glu, lle151Gly, Asn152Glu, Ala154Arg: AGT mutant having all mutations of AGTM and additionally those listed (protein, UniProt P16455 1-207, looked up, variant C62A Q115S Q116H K125A A127T R128A G131K G132T M134L R135S C150E S151G S152E A154R N157G S159E del183-207) Methylated-DNA--protein-cystei …: MDKDCEMKRTTLDSPLGKLELSGCEQGLHEIKLLGKGTSAADAVEVPAPAAVLGGPEPLMQATAWLNAYFHQPEAIEEFPVPALHHPVFQQESFTRQVLWKLLKVVKFGEVISYSHLAALAGNPAATAAVKTALSGNPVPILIPCHRVVEGEGRVGGYEGGLAVKEWLLAHEGHRLGKPGLG",Relative reaction rate,[2]; [3],18.42
"Lys8Thr, Thr127Ala, Ala154Thr, His174Arg: AGT mutant having all mutations of AGTM and additionally those listed (protein, UniProt P16455 1-207, looked up, variant K8T C62A Q115S Q116H K125A R128A G131K G132T M134L R135S C150N S151I S152N A154T N157G S159E H174R del183-207) Methylated-DNA--protein-cystei …: MDKDCEMTRTTLDSPLGKLELSGCEQGLHEIKLLGKGTSAADAVEVPAPAAVLGGPEPLMQATAWLNAYFHQPEAIEEFPVPALHHPVFQQESFTRQVLWKLLKVVKFGEVISYSHLAALAGNPAAAAAVKTALSGNPVPILIPCHRVVNINGTVGGYEGGLAVKEWLLAHEGRRLGKPGLG",Relative reaction rate,[2]; periplasmic extracts (x.),15.66
"Lys104Glu, Thr127Ala, Ala154Thr: AGT mutant having all mutations of AGTM and additionally those listed (protein, UniProt P16455 1-207, looked up, variant C62A K104E Q115S Q116H K125A R128A G131K G132T M134L R135S C150N S151I S152N A154T N157G S159E del183-207) Methylated-DNA--protein-cystei …: MDKDCEMKRTTLDSPLGKLELSGCEQGLHEIKLLGKGTSAADAVEVPAPAAVLGGPEPLMQATAWLNAYFHQPEAIEEFPVPALHHPVFQQESFTRQVLWKLLEVVKFGEVISYSHLAALAGNPAAAAAVKTALSGNPVPILIPCHRVVNINGTVGGYEGGLAVKEWLLAHEGHRLGKPGLG",Relative reaction rate,[2]; periplasmic extracts (x.),12.34
"Ala154Thr: AGT mutant having all mutations of AGTM and additionally those listed (protein, UniProt P16455 1-207, looked up, variant C62A Q115S Q116H K125A A127T R128A G131K G132T M134L R135S C150N S151I S152N A154T N157G S159E del183-207) Methylated-DNA--protein-cystei …: MDKDCEMKRTTLDSPLGKLELSGCEQGLHEIKLLGKGTSAADAVEVPAPAAVLGGPEPLMQATAWLNAYFHQPEAIEEFPVPALHHPVFQQESFTRQVLWKLLKVVKFGEVISYSHLAALAGNPAATAAVKTALSGNPVPILIPCHRVVNINGTVGGYEGGLAVKEWLLAHEGHRLGKPGLG",Relative reaction rate,[2]; [3],14.90
"Asn150Glu, lle151Gly, Asn152Trp, Gly153Asn, Ala154Glu: AGT mutant having all mutations of AGTM and additionally those listed (protein, UniProt P16455 1-207, looked up, variant C62A Q115S Q116H K125A A127T R128A G131K G132T M134L R135S C150E S151G S152W G153N A154E N157G S159E del183-207) Methylated-DNA--protein-cystei …: MDKDCEMKRTTLDSPLGKLELSGCEQGLHEIKLLGKGTSAADAVEVPAPAAVLGGPEPLMQATAWLNAYFHQPEAIEEFPVPALHHPVFQQESFTRQVLWKLLKVVKFGEVISYSHLAALAGNPAATAAVKTALSGNPVPILIPCHRVVEGWNEVGGYEGGLAVKEWLLAHEGHRLGKPGLG",Relative reaction rate,[2]; [3],11.97
"Lys32lle, Leu33Phe, Ala154Thr: AGT mutant having all mutations of AGTM and additionally those listed (protein, UniProt P16455 1-207, looked up, variant C62A Q115S Q116H K125A A127T R128A G131K G132T M134L R135S C150N S151I S152N N157G S159E del183-207 K32I L33F A154T) Methylated-DNA--protein-cystei …: MDKDCEMKRTTLDSPLGKLELSGCEQGLHEIIFLGKGTSAADAVEVPAPAAVLGGPEPLMQATAWLNAYFHQPEAIEEFPVPALHHPVFQQESFTRQVLWKLLKVVKFGEVISYSHLAALAGNPAATAAVKTALSGNPVPILIPCHRVVNINGTVGGYEGGLAVKEWLLAHEGHRLGKPGLG",Relative reaction rate,[2]; [3],33.89
"Asn150Glu, lle151Ser, Asn152His, Ala154Lys: AGT mutant having all mutations of AGTM and additionally those listed (protein, UniProt P16455 1-207, looked up, variant C62A Q115S Q116H K125A A127T R128A G131K G132T M134L R135S C150E S152H A154K N157G S159E del183-207) Methylated-DNA--protein-cystei …: MDKDCEMKRTTLDSPLGKLELSGCEQGLHEIKLLGKGTSAADAVEVPAPAAVLGGPEPLMQATAWLNAYFHQPEAIEEFPVPALHHPVFQQESFTRQVLWKLLKVVKFGEVISYSHLAALAGNPAATAAVKTALSGNPVPILIPCHRVVESHGKVGGYEGGLAVKEWLLAHEGHRLGKPGLG",Relative reaction rate,[2]; [3],15.43
"Cys62Ala, Lys125Ala, Ala127Thr, Arg128Ala, Asn157Gly, Ser159Glu: hAGT mutant with the listed mutations (protein, UniProt P16455 1-207, looked up, variant C62A K125A A127T R128A N157G S159E) Methylated-DNA--protein-cystei …: MDKDCEMKRTTLDSPLGKLELSGCEQGLHEIKLLGKGTSAADAVEVPAPAAVLGGPEPLMQATAWLNAYFHQPEAIEEFPVPALHHPVFQQESFTRQVLWKLLKVVKFGEVISYQQLAALAGNPAATAAVGGAMRGNPVPILIPCHRVVCSSGAVGGYEGGLAVKEWLLAHEGHRLGKPGLGGSSGLAGAWLKGAGATSGSPPAGRN",activity towards O^6-benzylguanine substrates,[1],retains activity
